Test results from PMC7367873, “Dissecting the sequence determinants for dephosphorylation by the catalytic subunits of phosphatases PP1 and PP2A” (Nature Communications, 2020).

How the values were obtained:
[1] = tested on: GFP-14-3-3β and its binding proteins; assay: GFP-14-3-3β co-IP with LC-MS/MS label-free quantification, untreated versus PP1c-treated; set-up: species or system human; conditions: pairwise comparison PP1 vs untreated
GFP-14-3-3β = GFP-14-3-3β co-IP with LC-MS/MS, untreated GFP-14-3-3β versus GFP control (14-3-3 interactome); format: binding, human; conditions: pairwise comparison untreated vs GFP
[2] = log2 difference, label-free quantification, 3 replicates each

Molecule | Difference (log2), PP1 vs untreated [1] | Difference (log2), untreated vs GFP (GFP-14-3-3β) | Difference (log2), PP1 vs untreated [1, 2] | Difference (log2), untreated vs GFP (GFP-14-3-3β; [2])
QARS (protein, UniProt P47897 2-775, looked up) Glutamine--tRNA ligase: AALDSLSLFTSLGLSEQKARETLKNSALSAQLREAATQAQQTLGSTIDKATGILLYGLASRLRDTRRLSFLVSYIASKKIHTEPQLSAALEYVRSHPLDPIDTVDFERECGVGVIVTPEQIEEAVEAAINRHRPQLLVERYHFNMGLLMGEARAVLKWADGKMIKNEVDMQVLHLLGPKLEADLEKKFKVAKARLEETDRRTAKDVVENGETADQTLSLMEQLRGEALKFHKPGENYKTPGYVVTPHTMNLLKQHLEITGGQVRTRFPPEPNGILHIGHAKAINFNFGYAKANNGICFLRFDDTNPEKEEAKFFTAICDMVAWLGYTPYKVTYASDYFDQLYAWAVELIRRGLAYVCHQRGEELKGHNTLPSPWRDRPMEESLLLFEAMRKGKFSEGEATLRMKLVMEDGKMDPVAYRVKYTPHHRTGDKWCIYPTYDYTHCLCDSIEHITHSLCTKEFQARRSSYFWLCNALDVYCPVQWEYGRLNLHYAVVSKRKILQLVATGAVRDWDDPRLFTLTALRRRGFPPEAINNFCARVGVTVAQTTMEPHLLEACVRDVLNDTAPRAMAVLESLRVIITNFPAAKSLDIQVPNFPADETKGFHQVPFAPIVFIERTDFKEEPEPGFKRLAWGQPVGLRHTGYVIELQHVVKGPSGCVESLEVTCRRADAGEKPKAFIHWVSQPLMCEVRLYERLFQHKNPEDPTEVPGGFLSDLNLASLHVVDAALVDCSVALAKPFDKFQFERLGYFSVDPDSHQGKLVFNRTVTLKEDPGKV | 0.1821 log2 | 0.6541 log2 |  | 
XPO5 (protein, UniProt Q9HAV4 2-1204, looked up) Exportin-5: AMDQVNALCEQLVKAVTVMMDPNSTQRYRLEALKFCEEFKEKCPICVPCGLRLAEKTQVAIVRHFGLQILEHVVKFRWNGMSRLEKVYLKNSVMELIANGTLNILEEENHIKDALSRIVVEMIKREWPQHWPDMLIELDTLSKQGETQTELVMFILLRLAEDVVTFQTLPPQRRRDIQQTLTQNMERIFSFLLNTLQENVNKYQQVKTDTSQESKAQANCRVGVAALNTLAGYIDWVSMSHITAENCKLLEILCLLLNEQELQLGAAECLLIAVSRKGKLEDRKPLMVLFGDVAMHYILSAAQTADGGGLVEKHYVFLKRLCQVLCALGNQLCALLGADSDVETPSNFGKYLESFLAFTTHPSQFLRSSTQMTWGALFRHEILSRDPLLLAIIPKYLRASMTNLVKMGFPSKTDSPSCEYSRFDFDSDEDFNAFFNSSRAQQGEVMRLACRLDPKTSFQMAGEWLKYQLSTFLDAGSVNSCSAVGTGEGSLCSVFSPSFVQWEAMTLFLESVITQMFRTLNREEIPVNDGIELLQMVLNFDTKDPLILSCVLTNVSALFPFVTYRPEFLPQVFSKLFSSVTFETVEESKAPRTRAVRNVRRHACSSIIKMCRDYPQLVLPNFDMLYNHVKQLLSNELLLTQMEKCALMEALVLISNQFKNYERQKVFLEELMAPVASIWLSQDMHRVLSDVDAFIAYVGTDQKSCDPGLEDPCGLNRARMSFCVYSILGVVKRTCWPTDLEEAKAGGFVVGYTSSGNPIFRNPCTEQILKLLDNLLALIRTHNTLYAPEMLAKMAEPFTKALDMLDAEKSAILGLPQPLLELNDSPVFKTVLERMQRFFSTLYENCFHILGKAGPSMQQDFYTVEDLATQLLSSAFVNLNNIPDYRLRPMLRVFVKPLVLFCPPEHYEALVSPILGPLFTYLHMRLSQKWQVINQRSLLCGEDEAADENPESQEMLEEQLVRMLTREVMDLITVCCVSKKGADHSSAPPADGDDEEMMATEVTPSAMAELTDLGKCLMKHEDVCTALLITAFNSLAWKDTLSCQRTTSQLCWPLLKQVLSGTLLADAVTWLFTSVLKGLQMHGQHDGCMASLVHLAFQIYEALRPRYLEIRAVMEQIPEIQKDSLDQFDCKLLNPSLQKVADKRRKDQFKRLIAGCIGKPLGEQFRKEVHIKNLPSLFKKTKPMLETEVLDNDGGGLATIFEP | 0.177 log2 | 1.1372 log2 |  | 
HERC5 (protein, UniProt Q9UII4 1-1024, looked up) E3 ISG15--protein ligase HERC5: MERRSRRKSRRNGRSTAGKAAATQPAKSPGAQLWLFPSAAGLHRALLRRVEVTRQLCCSPGRLAVLERGGAGVQVHQLLAGSGGARTPKCIKLGKNMKIHSVDQGAEHMLILSSDGKPFEYDNYSMKHLRFESILQEKKIIQITCGDYHSLALSKGGELFAWGQNLHGQLGVGRKFPSTTTPQIVEHLAGVPLAQISAGEAHSMALSMSGNIYSWGKNECGQLGLGHTESKDDPSLIEGLDNQKVEFVACGGSHSALLTQDGLLFTFGAGKHGQLGHNSTQNELRPCLVAELVGYRVTQIACGRWHTLAYVSDLGKVFSFGSGKDGQLGNGGTRDQLMPLPVKVSSSEELKLESHTSEKELIMIAGGNQSILLWIKKENSYVNLKRTIPTLNEGTVKRWIADVETKRWQSTKREIQEIFSSPACLTGSFLRKRRTTEMMPVYLDLNKARNIFKELTQKDWITNMITTCLKDNLLKRLPFHSPPQEALEIFFLLPECPMMHISNNWESLVVPFAKVVCKMSDQSSLVLEEYWATLQESTFSKLVQMFKTAVICQLDYWDESAEENGNVQALLEMLKKLHRVNQVKCQLPESIFQVDELLHRLNFFVEVCRRYLWKMTVDASENVQCCVIFSHFPFIFNNLSKIKLLHTDTLLKIESKKHKAYLRSAAIEEERESEFALRPTFDLTVRRNHLIEDVLNQLSQFENEDLRKELWVSFSGEIGYDLGGVKKEFFYCLFAEMIQPEYGMFMYPEGASCMWFPVKPKFEKKRYFFFGVLCGLSLFNCNVANLPFPLALFKKLLDQMPSLEDLKELSPDLGKNLQTLLDDEGDNFEEVFYIHFNVHWDRNDTNLIPNGSSITVNQTNKRDYVSKYINYIFNDSVKAVYEEFRRGFYKMCDEDIIKLFHPEELKDVIVGNTDYDWKTFEKNARYEPGYNSSHPTIVMFWKAFHKLTLEEKKKFLVFLTGTDRLQMKDLNNMKITFCCPESWNERDPIRALTCFSVLFLPKYSTMETVEEALQEAINNNRGFG |  |  | 2.053 | 0.5274
MRE11A (protein, UniProt P49959 2-708, looked up) Double-strand break repair …: STADALDDENTFKILVATDIHLGFMEKDAVRGNDTFVTLDEILRLAQENEVDFILLGGDLFHENKPSRKTLHTCLELLRKYCMGDRPVQFEILSDQSVNFGFSKFPWVNYQDGNLNISIPVFSIHGNHDDPTGADALCALDILSCAGFVNHFGRSMSVEKIDISPVLLQKGSTKIALYGLGSIPDERLYRMFVNKKVTMLRPKEDENSWFNLFVIHQNRSKHGSTNFIPEQFLDDFIDLVIWGHEHECKIAPTKNEQQLFYISQPGSSVVTSLSPGEAVKKHVGLLRIKGRKMNMHKIPLHTVRQFFMEDIVLANHPDIFNPDNPKVTQAIQSFCLEKIEEMLENAERERLGNSHQPEKPLVRLRVDYSGGFEPFSVLRFSQKFVDRVANPKDIIHFFRHREQKEKTGEEINFGKLITKPSEGTTLRVEDLVKQYFQTAEKNVQLSLLTERGMGEAVQEFVDKEEKDAIEELVKYQLEKTQRFLKERHIDALEDKIDEEVRRFRETRQKNTNEEDDEVREAMTRARALRSQSEESASAFSADDLMSIDLAEQMANDSDDSISAATNKGRGRGRGRRGGRGQNSASRGGSQRGRADTGLETSTRSRNSKTAVSASRNMSIIDAFKSTRQQPSRNVTTKNYSEVIEVDESDVEEDIFPTTSKTDQRWSSTSSSKIMSQSQVSKGVDFESSEDDDDDPFMNTSSLRRNRR | 0.1784 log2 | -0.2958 log2 |  | 
RAI14 (protein, UniProt Q9P0K7 1-980, looked up) Ankycorbin: MKSLKAKFRKSDTNEWNKNDDRLLQAVENGDAEKVASLLGKKGASATKHDSEGKTAFHLAAAKGHVECLRVMITHGVDVTAQDTTGHSALHLAAKNSHHECIRKLLQSKCPAESVDSSGKTALHYAAAQGCLQAVQILCEHKSPINLKDLDGNIPLLLAVQNGHSEICHFLLDHGADVNSRNKSGRTALMLACEIGSSNAVEALIKKGADLNLVDSLGYNALHYSKLSENAGIQSLLLSKISQDADLKTPTKPKQHDQVSKISSERSGTPKKRKAPPPPISPTQLSDVSSPRSITSTPLSGKESVFFAEPPFKAEISSIRENKDRLSDSTTGADSLLDISSEADQQDLLSLLQAKVASLTLHNKELQDKLQAKSPKEAEADLSFDSYHSTQTDLGPSLGKPGETSPPDSKSSPSVLIHSLGKSTTDNDVRIQQLQEILQDLQKRLESSEAERKQLQVELQSRRAELVCLNNTEISENSSDLSQKLKETQSKYEEAMKEVLSVQKQMKLGLVSPESMDNYSHFHELRVTEEEINVLKQDLQNALEESERNKEKVRELEEKLVEREKGTVIKPPVEEYEEMKSSYCSVIENMNKEKAFLFEKYQEAQEEIMKLKDTLKSQMTQEASDEAEDMKEAMNRMIDELNKQVSELSQLYKEAQAELEDYRKRKSLEDVTAEYIHKAEHEKLMQLTNVSRAKAEDALSEMKSQYSKVLNELTQLKQLVDAQKENSVSITEHLQVITTLRTAAKEMEEKISNLKEHLASKEVEVAKLEKQLLEEKAAMTDAMVPRSSYEKLQSSLESEVSVLASKLKESVKEKEKVHSEVVQIRSEVSQVKREKENIQTLLKSKEQEVNELLQKFQQAQEELAEMKRYAESSSKLEEDKDKKINEMSKEVTKLKEALNSLSQLSYSTSSSKRQSQQLEALQQQVKQLQNQLAECKKQHQEVISVYRMHLLYAVQGQMDEDVQKVLKQILTMCKNQSQKK | 0.1978 log2 | 0.7048 log2 |  | 
